Among the data in paper PMC11637481, “A third dose of inactivated vaccine augments the potency, breadth, and duration of anamnestic responses against SARS-CoV-2” (Protein & Cell, 2024) are Kd values, retold here.

This assay addresses T1, SARS-CoV-2 receptor-binding domain (RBD), wild type (SARS-CoV-2, wild type (GenBank MN908947), UniProt P0DTC2).
T1 construct: also called WT
Briefly: BLI. The note with it: both partners purified.

In general, Kd refers to the free concentration of one partner at which half of the binding sites on the other are occupied at equilibrium, for simple one-to-one binding.

B1: XGv016 (antibody, V domains shown)
VH: QVQLVQSGTEVRKPGASVTVSCKASGYTFTTYHMHWVRRAPGQGLEWMGIIDPGTGGASYPQKFRGRVTLTRDTSTNTVYMELSSLRFQDTAIYYCARAEGSSWLGWFDPWGQGTLVTVSS
VL: QSVLTQPPSASGTPGQRVSISCSGSSSNIGTNYVYWYQQLPGTAPKLLIYKNNQRPSGVPDRFSGSKSGTSASLAISGLRSEDEADYFCASWDNGLSGSGWVFGGGTKLTV
B1 displayed a Kd of 0.16 nM.

B2: XGv030 (antibody, V domains shown)
VH: EVQLVESGGGLVQPGGSLRLSCAASGFSFSTYSLNWVRQAPGKGLEWVSYISSSSITIYYAHSVKGRFTISRDDAKNSLYLQVNNLRDEDTAVYYCARVLGFSDYVWGSYQRGLYGMDVWGQGTTVSVSS
VL: QSALTQPASVSGSPGQSIAISCTGTSSDVGGYDFVSWYQQHPGKAPKLLIYDVTNRPSGISNRFSGSKSGNTASLTISGLQTEDEADYYCSSFTSSNTLPFVFGTGTTVTVL
With B2, binding was put at a Kd of 1.3 nM.

B3: XGv042 (antibody, V domains shown)
VH: QITLKESGPTLVKPTQTLTLTCTFSGLSMTTSGVGVGWIRQPPGKALEWLALIYWDDDKRYSPFLKSRLTITKDTSKNQVVLTMTNMDPADTGTYFCAHHTIPSIFDHWGQGTLVTVSS
VL: QSALTQPASVSGSPGQSITISCTATSSDVGVYNYVSWYQQYPGKAPRLIIFEVSNRPSGVSSRFSGSKSGYTASLTISGLQTDDEADYYCSSYTTTSTVFGGGTKLTVL
B3 had a Kd of 0.16 nM.

B4: XGv038 (antibody, V domains shown)
VH: QVQLVESGGGVVQPGRSLRLSCAASGFTFNNYGIHWVRQAPGKGLEWVAVIWYDGTNKYYADSVKGRFTISRDNSKNTVYLQMNSLRAEDTAVYYCARDYEITMAAPDYWGQGTLVTVSS
VL: DVVMTQSPLSLPVTLEQPASISCRSSQSLVSSDGNTYLNWFQQRPGQSPRRLIYKVSNRDSGVPDRFSGSGSGTDFTLKINRVEAEDVGIYYCMQGSHWPPTFGGGTKVEIK
The molecule B4 had a dissociation constant Kd of 0.43 nM.

B5: XGv026 (antibody, V domains shown)
VH: EVQLVESGGGVIQPGGSLRLSCAASEIIVSSNYMNWVRQAPGKGLEWVSVIYPGGSSFYADSVKGRFTISRDNSKNTLYLQMNSLRVEDTAVYYCARDSPHRPGTIWGQGTLVVVSS
VL: DIQMTQSPSSLSASVGDRVTITCRASQDINNYLNWYQQKPGKAPKLLIYDAFTLEAGVPSRFSGARFGTDFTFTISSLQPEDIATYYCHQCDNLPCTFGGGTKVEIK
Molecule B5 registered a Kd of 0.23 nM. This Kd lies about 1.9-fold lower than the previous one.

B6: XGv013 (antibody, V domains shown)
VH: EVQLVESGGGLVQPGGSLRLSCAASGITVSSNYMTWVRQAPGKGLEWVSVIYAGGSTFYADSVKGRFTISRDNSKNTLYLQMNSLRVEDTAVYYCARDLVDYGMDVWGQGTTVTVSS
VL: DIQLTQSPSFLSASVGDRVTITCRASQGIASYLAWYQQKPGKAPKLLIYAASTLQSGVPTRFSGSGSGTEFTLTIRSLQPEDSATYYCQHPSGHPPTFGGGTKVEI
B6 showed a Kd of 0.26 nM. The Kd values of the last two molecules are within 1.5-fold of each other.

B7: XGv018 (antibody, V domains shown)
VH: QVQLVESGGGVVQPGRSLRLSCAASGFTFSTYGMHWVRQAPGKGLEWVAVILNDGSGKLYADSVKGRFTISRDNSKNTLYLQMSSLRAEDTAVYFCARDQGELVTYFDYWGQGTLVTVSS
VL: DIQMTQSPSSLSASVGDRVTITCRASQSISRYLNWYQHKPGKAPKLLIYTTSNLQSGVPSRFSGSGSGTDFTLTISSLHPEDFATYYCQQSYNTPSWTFGQGTKVEIK
Take B7: the Kd is 0.21 nM.
